From a protein production outcome set (Wang et al. 2014) come the findings set out here.

A short description of the series: label from the status in PepcDB records.
Regarding “MVDIVCWAVKNGSAGRNLLLIANASSEDDQFWPFLQGLRYRGFKLFATIPDRTLPDDECLTAGIEDTGSDD”, the protein production result was “failed”.
Consider “MPADIIIHNGSLITFDEARPQAQALAIQGGMIAAVGSDAEILALAGPETRLIDAGGGTVLPGFIDSHVHLFGGSVELDCLSLYGVKGLDAMRAAIQPYAQANPDDALVFCVMADYDILGTGHTLTRHDLDSILADRPLAMFAPDHHTVWANTAALEATGLLQGGEVDAGSLIVLGEDGLANGELLEPGAYGPILGLTRHGGREMLGLTTGKDPEPPATPDQRARDKDVIARGLAHCAAQGITGLHLMDGNRYQLELLTELEAEGRLLCRCEVPFHMKGTDPVERMTAEAPAMRAAYRGDKVRCNHLKMFIDGVIESGTALMLRPYPGELGANDNTGDEVFTQEHFTACCVEADRLGFQIAVHAIGDAGVRRTIDAFEAARRANGTRDSRHRIEHIEVIHPDDIPRLAELDIVASLQPGHAPRGHVFPPGAVGQYLHPDQIVGAYAWQTIRETGARVVFSTDWPVIPVDVMPSLRAAIAPLDLGPDWPDQSQSLMDTLASYTRDNAWVEFNEDSKGRLKVGMAADIAVLSHDLTALAPDDITQAAAMVTIMDGAVTYQRPG”, for which the protein production entry is “failed”.
For the sequence “MVDNYEYQVGASLPPDAPSYVVRKADSDFYQALKAGKYCYVFNSRQMGKSSLKVRVMQRLVNEGVACSSIDVSGQGSKDNVTQEQWYTGIVSKIVKDLQIAKPIEFRRTWWRDRHDISPVQRFDEFIEDVLLSSIQRHIIIFVDEIDSTLSLGFASEDFFALIRSCYNKRAENPAYKRLTFALLGVATPGDLIQDKTRTPFNIGEAIELDGFKIHDIEPLAKGLAGKVENPQAVMQEVLAWTGGQPFLTQRVCELLGKALSIEKRDFRSVDENQIIELVKEIIHNQIIDNWEANDKQEHLKTIRDRLLISEEISVALLGLYQQILQQVEMTADSSFEQMRLRLTGLVVQQQGKLRVYNQIYRNVFDLSWVENELGKLRFYADKLRAWVESNYQDNTCLLWGEDLEKARVWADGRKLSDVDYRFLSASVEAELNQKVVKAETRQNQALQEEEKAKQRLTEVERKINIGGGILALFVVGAIVAAIGAISANIERQQAQVVTDLERSSADLLRLRGNVGLDNLVEAMRSVKQLKQLVKNGNQLKDYPTVSPILALHNTLEYNREINQLKDDRRVQKQVFSPDTKIVANISDDGTTKLLNLQTGTITTLKHDKKVNNVAFSPNGQIVATASDDGTAKLWNLQGGKIATFKHNKEVNDVAFSPDGKTVGTASWDTAKLWNLQGGEIATLQYDSLVQNIVFSPDGKNVAIASYDSDVKLWNLQGKEIATIIHNKMTKYLSVVNNLFFSPDGKVVATTSRRDATTKLWNLQGKEIATFKYYPDIGIKNSVFSPNGKVVAIYSDDKTVNLYNLQGNTIATLKHNDKVEDIVFSPDGNTVATVSSYVHDGTVNLWNLKGNIIGTFKHQGLFQDISRLEFSPDGQTIATALLDNTAHLWNLQGKKIAIFTHYSQVLNLAFSPDGRTITTASSDGTAKLWNLQGGNIRILKHNDQINNIVFSPDGKTVATTSYDGTAKLWNLQKGEIVTLKHDGVVNDAVFSPDGKTIATTTSSDKTVKLWNLQGQLIATLKHKYEPDKEVVFSPDSNIIATSDDTAKLWNLQGQLIATLTNEGGVREVIFNPDGKSVLTTSYENAKLWNLEGQEIATFKHKHLGEVVFSPDGHTVATASVYRDSDISGSVKLWNLKGEEIITLQHGSFSDVLFSPDGKTIATVSTLSNTAKLWNLQGREIATLTHDGWINHISFSPDGKTIGIRSGDKTVKLWNLRGQEIATLKHNSSTIVSDPIFSPDGKTIATVSLDRTVRLWTEVRDGSWQQFAEYQSRRVVFSPDNKLIAIEGNYFVQLRRVQSLDSLLARGCNDLKEYLASRPDLRKEICPDNK”, the protein production result is given as “failed”.
The entry for “MLIILTGLPSVGKSTFSKAFSKKMAEKNIDNIILGTDLIRESFPVWKESYEEFIRDSNNYLIKEALENKFSVIVDDTNYYNSKRRDLMNIAKECDTNYVTIYLKAPLNLLLKRNIERGQKIPNEVIKNMYEKFDTPGTKYAWDLPDITVDTTEKIDYNEILNEILEINENKNLKIEEDKIPKSEPVESDLVKIDSLTRNIVGNLIKTGKIDKKDIKLLSEIRKSFLKDCKKIESEKLDFEKIEKDFLDYLNKNLK” is “failed”; for “MGSVQVKAHADEQGRAVVRASIEIAAPPSVVFGVILDCGRAARMSPGVKRCRVVSRAADGSEVREHTVKWGFFLPALQSRSRLSLQPDREIRFTCIGGDIRACDGFWRLEPLDGGMRTRVTYDLWATAPYAAPAGLVSSLMRRTVPQSLAALRRECEGLEHHHHHH” it is “failed”; for “MTVRYFAAAAAAAGIETESLEIATGTSVAELVERLGARNPELARVLKRCSYLCDEVAVRDMAKPLVTPQTVDVLPPFAGGLEHHHHHH” it is “failed”.
Turning to “QVPKKQTTSKILVRNIPFQANQREIRELFSTFGELKTVRLPKKMTGTGAHRGFGFVDFITKQDAKKAFNALCHSTHLYGRRLVLEWADSEVTVQ”, the protein production result is reported as “not failed”.
Regarding “MPNYINYPSWLHPEVIQGIPITWYSLSYILIILISYKFIWYQIQSDNVDIKKEDYEIFMFSLVLGAILGGRLASTLVYDKSGIYYSNPWLILLPFDQHWNFTGFRGMAIHGGFLGAIIAPLITINTNLKNTNVQKYFLKLTDYGSIAFSSGYILGRLANFANAELYGRVMKGGIIFPNAEPFDTNIPGVKEFASSVGLEISPHDLLINLPRIPSQLIEGFFEGPVTFLLLWFLFKKIKKYDGFIFGVYVMLYAFFRFFIEYLREPDKELGFIITYKPITSLSEFSFLNISMGQILSLTLMLSGLIWIIVTKKIADKKIKNNTNLAYKN”, the protein production result is listed as “failed”.
In the case of “VVFFRHLVSDDGSVRHTGDNLVGGVGQGGDDEAILVDLQRVPVHIDQIVFTVNSFTGQTFQEVQNAFCRLVDETNGQELARYTLAGGGAFTAQIMAKVHRAGQGWSMTAIGTPANGRTFQDLMPAILPVL”, the protein production entry is recorded as “failed”.
The value for “MTGNSFHVSGYGPDKAGWTRLFARDSMARRLDWPILLAAVALSLMGSLLVYSATRNRTELNQGDQYYFLTRHLLNTGIGLALMVATVWLGHRALRTAVPLLYGFSVFLILLVLTPLGSTINGAHSWIKLPGGFSLQPSEFVKITIILGMAMLLAARVDAGDRPHPDHRTVLQALGLATVPMLIVMLMPDLGSVMVMVIIVLGILLASGASNRWIFGLLGAGTAGALAVWQLGILDDYQIARFAAFANPALDPAGVGYNTNQARIAIGSGGLTGSGLFEGSQTTGRFVPEQQTDFVFTVAGEELGFLGAGLIIALLGVVLWRGCRIARSTPDLYGTVVAAGIVAWFAFQTFENVGMTLGIMPVTGLPLPFVSYGGSSMFAVWIAVGLLQSITVQRPMSA” was “failed”.
For “MKIGVDAGGTLIKIVQEKNGERTYSTRLTTEIEEVIQWLNQQDCNNINLTGGQAAMINEQLNCESRVFVEFDAAAKGLEILLEEQGHFLDDYIFTNVGTGTSLHFSNGKAQKRVGGIGTGGGMIQGLGYLLTGISNYKQLTDTAQNGNRDIIDLKVKHIYKDSEPPISGDLTAANFGNVLHHLDESFTDADKLASVIAVVGEVITTMSITVAREHNTKNVAYIGSSFHNNDLLKDVVKDYTVLRGCEPYYIEHGAFSGALGSIHLLEHHHHHH”, the protein production entry was “failed”.
The value for “MKFRGNFVCQPRAGPAESRPTRPFTPRPSATGSLFMSNQHFVSPDLIRQGFSRAMSDMYREEVPLYGALMELVAEVNAQVLERQPALARHLQSSGELQRLDLERHGAIRVGSAAELATLARLFAVMGMQPVGYYDLTPAGVPVHSTAFRAVHEAALQVSPFRVFTSLLRLELIDNPELRSFAEQVLARRQIFTPQVLELIQQAEAAGGLDAEDAERFIRQALETFRWHHHATVTAAQYASLSAQHRLIADVVAFKGPHINHLTPRTLDIDEVQRLMPARGITPKAVIEGPPRRECPILLRQTSFKALEESVAFTDQAQSQGSHSARFGEIEQRGAALTPKGRELYDRLLNAARDALGDFPNEANAQRYNQLMQEHFREFPDSHPAMREQGLAYFRYFVSETGLAARNQPQRPTTLAALLAAGHLSAEPLVYEDFLPVSAAGIFQSNLGDDSQSHYAGQSNRQAFEAALGRPTLDELQLYAQTQQRSLEHCAATLGLPALLEHHHHHH” was “failed”; that for “MLMNNRVNNMMRTYKFRIYISKSIQETIEEHLNICRYLYNYLLEQKTKNPKLNKGDTQKLITEHKKENPELKKVHSKALQMVNNKLWGNLKALGKLKQNGHKVGKLRFKSSKNHYKTIEYNQSGFKIKDNKLYLSKIGEISIKLHRKIKGEIKGVIIKKELTNKWFAFFQVEEEPKPLPKTNKVVGIDLGIDGYTIDSDGNKFENPKFIDETLDKIKKVQKNLSRKVRGSNNYKKTKLKLIKVYDKLNNQKNDFLHKLSRYYINNYDKIVLEDLNIKSMVENKKGQKTLNRHILDGSWKKFINLLLYKAEGAGREVILINPAYTSKKCFNCGCVVSSLRLSDRIFFCPNCGWKIDRDYNASLNILKSGLGESVVPAEGRPLLRVIPYIKVISGQVSPMNQEALPEGRGLRKPKGFRSTPSVREG” was “failed”.
For “MSQSKEDKIRSILEAKNIKSNFQNKENLSEFNEKKASKRAEDLLDVYYNTLSTADMEFPYWYNREYRKSDGDIPVVRRAKALKAAFSHMTPNIIPGEKIVMQKTRHYRGSFPMPWVSESFFVAQGEQMREEAKKLASNTADELTKFGSGGGNVTESFGNVVSIAGKFGMRKEEVPVLVKMAKEWVGKSVEDLGFHYEKMMPDYDLKENLMSTLICMFDSGYTLPQGREVINYFYPLNYGLDGIIEMAKECKKAVAGNASGDGLIGMDRLYFYEAVIQVIEGLQTWILNYAKHAKYLESIETDLEAKKEYSDLVEILEHIAHKQPRTFREALQLTYTIHIASVNEDAISGMSIGRFGQILYPWYEQDIEKGLITKEEVIELLELYRIKITCIDCFASAGVNGGVLSGNTFNTLSIGGLKEDGSTGANELEELLLEASMRCRTPQPSLTMLYDEKLPEDFLMKAAECTKLGSGYPAWVNNSNGTTFMMKQFADEGMTVEEARAFALGGCLETSPGCWKQLTLNGKTYSIAGGAGQSAGSGVHFIANPKILELVLMNGKDYRMNIQVFEPHNKPLDTYEEVIEVFKDYYKQAINVLERANNIELDIWRKFDTSIINSLLKPDCLDKGQHIGNMGYRYNATLNVETCGTVTMVNSFAALKKLVYDDKAFTIEEMKDAILNNFGFKDALEVGNYSMADQVKVDKTGKYDAIYKACLDAPKYGNNDLYADNILKNYEVWLSKVCEEAQSLYAKKMYPCQISVSTHGPQGAATLATPDGRLSGTTYSDGSVSAYAGTDKNGVYALFESATIWDQAVVQNSQMNLKLHPTTIKGQQGTKKLLDLTRSYLRKGGFHIQYNVVDSETLKDAQKNPDNYRQLMVRVAGFTQYWCELGKPIQDEVIARTEYEGV”, the protein production entry is “failed”.
The value for “MTADEWPQRLIRFTDWSHAEATAVEHLLPVLIAQESELAQWSFLRKHPWWRLRYRPACPDSAKALDAALDELVDAGVLASWTRGIYEPEETAFGGPAAMKIAHALFHYDSRHLLDEAARQQTVSGPRLGRRELAVLLLSVAMRAAGLDWYEQGDVWARIAAERSGDEVRSPQRHRAAVHRLMTVDVSTTSRSVARGRLAPLAEWIATFEWFGQQLADLNRQGRLERGLRAVIAHHGIFHFNRLGLAAQDQHTLSTLAKEVVMGTSDNAASTQAEGAPGATVNGVNSDTIEAPSADRLRAQLIDHLVETGCVRTPRVEEAMRTVPRHLFVPNAPLEKAYGNAPVDTKFDGSGRSISCASQPDIVAMMLEQLDVQPGQKILELGAGTGFNAGLLGYLVGETGHVTTIDVDEDIVAGARGGLAAAGIHNVEVILGDGAVGHTPNAPYDRIEATVGAHGVPHAWLDQLAPGGRLLTPLRLRGSVSRSIAFENQDGAWRSVGSQMNTFMPLRRGIADDPRLFVPLDPDHTVTLVTNGDQKVDADALGDIFRQPRTEAWTDVTFRGPESAEYLELWLTCAMPNGLSRMPAKNEAIEKGLVTAPYPSSTAVFEDGTLTYLTRRPYAKKAPDGATLYEFGVIGHGPDAEALAGDVADQIRAWDQDFRALDVGFEIQPLDAAPLAPKPGRFAFDNPLNRIVIEWQ” was “failed”.
